Assay results taken from US20260242454A1.

Legend:
[1] = target: recombinant human TGF-β1 (human) (UniProt P01137); assay: ELISA, TGF-β1 coated on plate, anti-human IgG Fc-HRP detection
[2] = target: recombinant human TGF-β3 (human) (UniProt P10600); assay: ELISA, TGF-β3 coated on plate, anti-human IgG Fc-HRP detection
Chain of UniProt P10600 (P10600 301-412 limits assumed): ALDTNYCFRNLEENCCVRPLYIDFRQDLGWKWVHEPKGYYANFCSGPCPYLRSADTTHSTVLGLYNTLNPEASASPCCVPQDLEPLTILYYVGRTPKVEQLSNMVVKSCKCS

Chain of UniProt P01137 (P01137 279-390 limits assumed): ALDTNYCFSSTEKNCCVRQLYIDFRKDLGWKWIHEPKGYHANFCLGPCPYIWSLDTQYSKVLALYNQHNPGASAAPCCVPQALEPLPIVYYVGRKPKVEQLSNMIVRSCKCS

**Q.** For M7824, which EC50 [1] is on record?
**A.** The EC50 was 2.08 nM.

**Q.** What about the EC50 [2] of the same substance?
**A.** The EC50 was 3.32 nM.
